Reference: patent US20240116985A1 (published 2024)
One block for each binder: values may come before it. Starred links: 1 amine or outer side, 2 acyl side, 3 side chain; linkers in the order of their positions; H or OH if unused. Positions of bridges follow the written chain, without caps; N, C: chain ends. Non-standard residues stand in square brackets, D forms with d. Primed or numbered codes have the meaning given here. *: point of attachment. B5(10) = 2-amino-2-(pent-4-en-1-yl)hept-6-enoic acid, bis(4-pentenyl)glycine, stitching residue bearing both staples, C=CCCCC(CCCC=C)(N[*:1])C(=O)[*:2]; PyrS2″ = (S)-3-amino-1-((pent-4-en-1-yloxy)carbonyl)pyrrolidine-3-carboxylic acid (stapling residue), C=CCCCOC(=O)N1CC[C@@](N[*:1])(C(=O)[*:2])C1; B5(4) = 2,2-bis(4-pentenyl)glycine = 2-amino-2-(pent-4-en-1-yl)hept-6-enoic acid (stitching residue), C=CCCCC(CCCC=C)(N[*:1])C(=O)[*:2]; TfeGA = (S)-2-amino-3-((carboxymethyl)(2,2,2-trifluoroethyl)amino)propanoic acid, O=C([C@H](CN(CC(=O)[*:3])CC(F)(F)F)N[*:1])[*:2]; PyrS2 = (S)-3-amino-1-((pent-4-en-1-yloxy)carbonyl)pyrrolidine-3-carboxylic acid, C=CCCCOC(=O)N1CC[C@@](N[*:1])(C(=O)[*:2])C1; TriAzDap = Dap whose side chain is a 1H-1,2,3-triazol-1-yl bearing the bracketed 4-substituent; B5(3) = 2,2-bis(4-pentenyl)glycine (stitching residue), C=CCCCC(CCCC=C)(N[*:1])C(=O)[*:2]; Phe(3-COOH) = N[C@@H](Cc1cccc(C(=O)O)c1)C(=O)O; 2F3MeF = Cc1cccc(C[C@H](N[*:1])C(=O)[*:2])c1F; Phe(2-CF3) = N[C@@H](Cc1ccccc1C(F)(F)F)C(=O)O; Phe(2-Cl) = N[C@@H](Cc1ccccc1Cl)C(=O)O; Bta = N[C@@H](Cc1csc2ccccc12)C(=O)O; αAllylPro = C=CC[C@@]1(C(=O)O)CCCN1; tBuAla = CC(C)(C)C[C@H](N)C(=O)O; 3Thi = N[C@@H](Cc1ccsc1)C(=O)O; Thr(ol) = C[C@@H](O)[C@H](N)CO; PyrS2(4) = not defined here; CMe2CO2H = CC(C)(C(=O)O)*; hSer = N[C@@H](CCO)C(=O)O; Abu = CC[C@H](N)C(=O)O; Alaol = C[C@@H](CO)N*; Aib = CC(C)(N)C(=O)O

Legend:
[1] = biological target: T1, beta-catenin in DLD1 TCF/LEF luciferase reporter cells (UniProt P35222 1-781); experiment: cell-based or functional assay
T1 sequence (looked up): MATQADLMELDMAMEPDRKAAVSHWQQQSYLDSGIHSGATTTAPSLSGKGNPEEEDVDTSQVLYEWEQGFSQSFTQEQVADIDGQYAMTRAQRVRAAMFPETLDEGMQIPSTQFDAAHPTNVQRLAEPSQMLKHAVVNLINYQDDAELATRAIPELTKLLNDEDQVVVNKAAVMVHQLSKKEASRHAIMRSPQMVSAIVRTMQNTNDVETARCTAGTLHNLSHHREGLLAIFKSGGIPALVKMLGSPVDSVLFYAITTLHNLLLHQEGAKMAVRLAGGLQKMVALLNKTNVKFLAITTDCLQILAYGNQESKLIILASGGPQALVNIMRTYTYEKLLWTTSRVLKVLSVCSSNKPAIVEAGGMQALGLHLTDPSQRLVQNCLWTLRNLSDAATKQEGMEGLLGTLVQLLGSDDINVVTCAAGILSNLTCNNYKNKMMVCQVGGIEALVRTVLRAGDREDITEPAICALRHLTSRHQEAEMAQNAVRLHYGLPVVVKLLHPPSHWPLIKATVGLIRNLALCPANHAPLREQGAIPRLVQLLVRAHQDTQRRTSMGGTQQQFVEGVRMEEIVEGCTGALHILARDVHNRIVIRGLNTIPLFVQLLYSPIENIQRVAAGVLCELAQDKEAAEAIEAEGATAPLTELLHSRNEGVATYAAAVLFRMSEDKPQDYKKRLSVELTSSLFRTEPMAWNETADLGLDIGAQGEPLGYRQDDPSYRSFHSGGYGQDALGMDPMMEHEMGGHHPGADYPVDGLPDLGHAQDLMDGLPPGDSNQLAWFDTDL

[2] = biological target: T2, beta-catenin in DLD1 TCF/LEF luciferase reporter cells (Homo sapiens (Human), UniProt P35222 1-781); experiment: cell-based or functional assay
T2 sequence: T1 sequence (looked up)

[3] = biological target: T3, B-cat-Halo (beta-catenin HaloTag NanoBRET construct expressed in HEK293 cells) (UniProt P35222 1-781); experiment: cell-based or functional assay
T3 sequence (looked up): T1 sequence (looked up)

[4] = biological target: T4, beta-catenin in DLD1 TCF/LEF luciferase reporter cells (UniProt P35222 1-781); experiment: cell-based or functional assay; remark: listed apart in the source
T4 sequence (looked up): T1 sequence (looked up)

[5] = biological target: T5, B-cat-Halo (UniProt P35222 1-781, HaloTag NanoBRET 618 Ligand bound in the assay); experiment: NanoBRET Abs IC50 in HEK293 cells; B-cat-Halo, competitor TCF4-Luc
T5 construct: Transfected into HEK293 cells for the NanoBRET assay; also called beta-catenin HaloTag NanoBRET construct; not shown: HaloTag
T5 sequence (looked up): T1 sequence (looked up)

[6] = biological target: T6, full-length beta-Catenin (Uniprot ID P35222) (Homo sapiens (Human), UniProt P35222 1-781); experiment: fluorescence polarization competition; full-length beta-catenin, competitor 5FAM-TCF4(10-53) probe
T6 construct: also called bCat; B-Catenin
T6 sequence: T1 sequence (looked up)
Procedure, shortened: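 Data fitted to 1:1 binding model with hill slope from duplicate reads taken after 60 minutes at 20° C. in the dark.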

[7] = biological target: T7, beta-catenin in DLD1 TCF/LEF luciferase reporter cells (UniProt P35222 1-781); experiment: cell-based or functional assay; remark: listed apart in the source
T7 sequence (looked up): T1 sequence (looked up)

[8] = biological target: T8, beta-catenin in DLD1 TCF/LEF luciferase reporter cells (UniProt P35222 1-781); experiment: cell-based or functional assay; remark: listed apart in the source
T8 sequence (looked up): T1 sequence (looked up)

[9] = biological target: T9, full-length beta-Catenin (Uniprot ID P35222) (Homo sapiens (Human), UniProt P35222 1-781); experiment: fluorescence polarization competition; full-length beta-catenin + 5FAM-TCF4(10-53) probe
T9 construct: also called bCat; B-Catenin
T9 sequence: T1 sequence (looked up)
Protocol: The plate was incubated protected from light for 60 minutes at 20° C. prior to read. Reads were performed on a CLARIOstar plate reader (BMG Labtech) in duplicate, and data were fitted to a 1:1 binding model with hill slope using an in-house script. All provided concentrations are final concentrations.

Binder: Ac-[αAllylPro]D[tBuAla][B5(4)]DDAAFT[PyrS2″][Phe(2-Cl)][Bta][Thr(ol)] (staple 1-4, 4-11) [I-1245]
DLD1 4% Abs IC50 [2]: 4.1 µM

Binder: Ac-[αAllylPro]D[tBuAla][B5(3)]D[Phe(3-COOH)][Aib]AF[Abu][PyrS2″][3Thi][Bta][Me2Gln]A-NH2 (staple 1-4, 4-11) [Ac-PL3-Asp-Npg-B5-Asp-3COOHF-Aib-Ala-Phe-Abu-PyrS2-3Thi-BztA-Me2Gln-Ala-NH2]
NanoBRET Abs IC50 [3]: 2.3 µM
DLD1 4% Abs IC50 [4]: 0.6 µM

B1: I-749 (peptide)
peptide: XDLXDEAAFNXFXT
modifications: not fully specified; N-terminal Ac; C-terminal NH2; PL3 at 1, B5 at 4, S8 at 11, BztA at 13; stapled PL3-B5 and B5-S8 by olefin metathesis
notes: Stapled peptide; also called Ac-PL3-Asp-Leu-B5-Asp-Glu-Ala-Ala-Phe-Asn-S8-Phe-BztA-Thr-NH2
IC50 [5]: 9 µM
IC50 [6]: 0.04 µM

Binder: Ac-[αAllylPro]D[tBuAla][B5(3)]D[TfeGA]AAF[hSer][PyrS2″][Phe(2-Cl)][Bta][hSer]-NH2 (staple 1-4, 4-11) [I-993]
DLD1 reporter assay Abs IC50 [7]: 4.4 µM

Binder: Ac-[αAllylPro]D[tBuAla][B5(4)]D[TfeGA]AAFT[PyrS2″][Phe(2-Cl)][Bta]-Alaol (staple 1-4, 4-11) [I-1242]
DLD1 4% Abs IC50 [2]: 3.8 µM

Binder: Ac-[αAllylPro]D[tBuAla][B5(3)]D[Phe(3-COOH)][Aib]AF[Abu][PyrS2″][Phe(2-CF3)][Bta][Me2Gln]A-NH2 (staple 1-4, 4-11) [Ac-PL3-Asp-Npg-B5-Asp-3COOHF-Aib-Ala-Phe-Abu-PyrS2-2F3MeF-BztA-Me2Gln-Ala-NH2]
NanoBRET Abs IC50 [3]: 6.2 µM
DLD1 4% Abs IC50 [4]: 6.4 µM

Binder: Ac-[αAllylPro]D[tBuAla][B5(3)]D[TfeGA]AAFF[PyrS2″]F[Bta]Q-NH2 (staple 1-4, 4-11) [I-988]
DLD1 reporter assay Abs IC50 [7]: 5.2 µM

The next lines start with the values.

DLD1 4% Abs IC50 [1]: 2.1 µM
Binder: Ac-[αAllylPro]D[tBuAla][B5(3)]D[TriAzDap](CH2CMe2CO2H)AAFL[PyrS2″][Phe(2-CF3)][Bta]S-NH2 (staple 1-4, 4-11) [I-2372]

DLD1 4% Abs IC50 [1]: 1 µM
Binder: Ac-[αAllylPro]D[tBuAla][B5(3)]D[Phe(3-COOH)]AAFL[PyrS2″][Phe(2-CF3)][Bta]QLA-NH2 (staple 1-4, 4-11) [I-2378]

DLD1 4% Abs IC50 [1]: 2.6 µM
Binder: Ac-[αAllylPro]D[tBuAla][B5(3)]D[TriAzDap](CMe2CO2H)AAFL[PyrS2″][Phe(2-CF3)][Bta]S-NH2 (staple 1-4, 4-11) [I-2374]

DLD1 4% Abs IC50 [8]: 0.7 µM
B2: I-1466 (peptide)
peptide: Ac-[αAllylPro]D[tBuAla][B5(4)]D[Phe(3-COOH)]AAFL[PyrS2(4)][2F3MeF][Bta]Q-NH2
modifications: staple 1-4, 4-11; not fully specified; printed as Ac-PL3-Asp-Npg-B5-Asp-3COOHF-Ala-Ala-Phe-Leu-PyrS2-2F3MeF-BztA-Gln-NH2; reading uncertain

EC50 [9]: 3.79 µM
B3: I-1296 (peptide)
peptide: Ac-[αAllylPro]DA[B5(10)]NTAAFL[PyrS2]F[Bta]Q-NH2
modifications: staple 1-4, 4-11; not fully specified; printed as Ac-PL3-Asp-Ala-B5-Asn-Thr-Ala-Ala-Phe-Leu-PyrS2-Phe-BztA-Gln-NH2
